# Source: the supplement of paper PMC9732359
# ± gives the uncertainty stated by the source.
# Assay: protein stability index of a GFP-peptide fusion (yeast GPS) (PSI 1-4); higher = more stable; sorted into four equal gates, so the index is relative within each strain
# How it was run: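 For each peptide, the protein stability index sums the read frequency in every gate after multiplying it by the gate number. Read frequencies came from plasmids that were PCR-amplified from each gate and Illumina-sequenced, with reads assigned to strains by barcodes. The gates were four equal bins of GFP/Cherry fluorescence ratio applied to mid-log yeast in leucine-free medium carrying a pooled library of tiled 17-residue yeast protein peptides fused downstream of GFP on a Cherry-expressing plasmid.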
Sequence,protein stability index (doa10∆),protein stability index (pdr5∆),protein stability index (san1∆),protein stability index (ubr1∆)
CQILDGELDVLQIESVT [PRP8],2.56 ± 0.05,2.78 ± 0.062,2.55 ± 0.065,2.86 ± 0.059
CRNINRKHRNAQFAGRA [DIS3],2.54 ± 0.11,2.78 ± 0.071,2.18 ± 0.22,2.92 ± 0.086
CRVDFKNPHDIIEGINA [RPL12A],2.19 ± 0.07,2.45 ± 0.072,1.83 ± 0.12,2.43 ± 0.05
CSKSIPKDKAIKRMAIR [RPS26A],2.8 ± 0.069,2.96 ± 0.073,2.73 ± 0.065,2.85 ± 0.046
CSNNKNSIKNVPPILII [SSN2],2.39 ± 0.16,2.28 ± 0.098,2.52 ± 0.17,1.5 ± 0.085
CSSATVPKHMLDKLDEI [AAR2],2.79 ± 0.069,3.05 ± 0.088,2.98 ± 0.08,3.2 ± 0.067
CVHMVYEYAEHDLLQII [SSN3],2.26 ± 0.086,2.21 ± 0.089,2.12 ± 0.11,2.48 ± 0.08
CYAPRPSAGPHKLRESL [RPS4A],2.78 ± 0.083,3.12 ± 0.091,2.87 ± 0.11,3.07 ± 0.072
CYPQFAERDSQGGFYKQ [UBP6],3.31 ± 0.065,3.28 ± 0.064,3.12 ± 0.058,3.21 ± 0.044
DAAAEEEKEEEAAEESD [RPP1B],3.19 ± 0.13,3.25 ± 0.13,3.04 ± 0.1,3.29 ± 0.073
DAAEEEKEEEAKEESDD [RPP2B],2.88 ± 0.3,3.22 ± 0.14,3.09 ± 0.3,3.41 ± 0.078
DAGKIDKHLYHVLYKES [RPL19A],3.25 ± 0.24,3.12 ± 0.2,2.7 ± 0.091,2.89 ± 0.083
DAGVTFNKEQLNKFKKA [ECM29],1.83 ± 0.053,2.13 ± 0.11,1.55 ± 0.14,2.36 ± 0.059
DAIAVTKGHGFEGVTHR [RPL3],3.06 ± 0.11,3.19 ± 0.11,3.37 ± 0.1,3.36 ± 0.077
DAKTSYPNEVLKFNHGN [REC8],2.78 ± 0.052,2.95 ± 0.072,3.02 ± 0.058,2.95 ± 0.065
DALEMQWRYLYDTQLKV [ARP7],1.75 ± 0.053,1.55 ± 0.046,1.41 ± 0.088,1.53 ± 0.05
DANGVSLFELIVPIFQL [YJL039C/NUP192],2.37 ± 0.053,2.08 ± 0.049,2.25 ± 0.062,2.14 ± 0.032
DANLLEEGETSRPLKKV [SWI3],3.23 ± 0.12,3.45 ± 0.16,2.95 ± 0.082,2.99 ± 0.15
DASTPLRSTENGIVDQV [RPB2],2.94 ± 0.12,3.33 ± 0.1,3.34 ± 0.06,3.47 ± 0.092
DAVEGVSECIILGQTMS [RPO31],1.7 ± 0.21,1.46 ± 0.077,1.45 ± 0.12,1.56 ± 0.13
DAYYDLELRNSVMDDIL [PRP8],2.98 ± 0.055,3.04 ± 0.044,2.93 ± 0.049,3.09 ± 0.036
DDDDYGDEEDPNEEAAF [RPC31],,3.38 ± 0.28,,
DDDDYNAEKYFNNGDDD [RPC31],3.01 ± 0.12,3.13 ± 0.16,3.06 ± 0.082,3.19 ± 0.07
DDEHNPTIVGGLYYQRP [AAR2],2.66 ± 0.053,2.56 ± 0.039,2.62 ± 0.036,2.96 ± 0.04
DDIYDISLLKNRRKQSF [RPN4],2.91 ± 0.11,3.08 ± 0.12,3.13 ± 0.12,3.1 ± 0.14
DDKDCTIKISTNDDSIK [RGR1],2.89 ± 0.068,3.15 ± 0.067,2.98 ± 0.052,2.96 ± 0.057
DDLIHFTLKQWNRLTIS [COR1],1.3 ± 0.052,1.34 ± 0.041,1.27 ± 0.066,1.33 ± 0.043

Sequence,protein stability index (doa10∆),protein stability index (pdr5∆),protein stability index (san1∆),protein stability index (ubr1∆)
DDMDIDEVNDRSDISDS [PCI8],3.22 ± 0.12,3.1 ± 0.1,3.26 ± 0.048,3.02 ± 0.085
DDPFMTKSGATTSEKQE [GAL11],2.97 ± 0.18,3.26 ± 0.13,2.82 ± 0.23,
DDTAANNGDKDHLKLVS [YIL149C/MLP2],3.25 ± 0.12,3.35 ± 0.11,2.81 ± 0.12,3.2 ± 0.087
DDVISNAGTNDNSFNEL [MCD1],3.31 ± 0.15,3.37 ± 0.12,3.31 ± 0.06,3.44 ± 0.084
DDYSNEDNEMLEDLFSY [YJR042W/NUP85],2.01 ± 0.15,1.94 ± 0.15,1.76 ± 0.18,1.66 ± 0.073
DEDIITIFKYLTDKDAF [CDC53],2.91 ± 0.14,3.15 ± 0.11,3.21 ± 0.061,3.19 ± 0.059
DEGHVLKLENLHVVSKS [SIN4],3.14 ± 0.11,2.65 ± 0.16,2.73 ± 0.19,3.02 ± 0.13
DEKEKQLAVANEIIRSL [SIR4],2.3 ± 0.048,2.25 ± 0.047,2.31 ± 0.069,1.91 ± 0.047
DEKLKTEKLKNDKSEVL [SRB8],3.09 ± 0.3,3.74 ± 0.21,3.24 ± 0.18,3.33 ± 0.22
DELCKLVTCEGSEEKAF [SRP54],2.92 ± 0.18,2.3 ± 0.18,1.95 ± 0.18,2.25 ± 0.13
DELERILKELSNLETLY [RPB4],3.21 ± 0.092,3.33 ± 0.082,3.21 ± 0.072,3.1 ± 0.12
DELILEAKERYTDRDQD [NNF1],,3.68 ± 0.27,3.58 ± 0.1,3.52 ± 0.2
DELSSKELVECHLYSQR [NNF1],2.05 ± 0.056,2.33 ± 0.052,2.13 ± 0.094,2 ± 0.04
DESDTISFRSNLLKNFI [SNF6],2.04 ± 0.084,2.55 ± 0.12,2.58 ± 0.15,2.41 ± 0.079
DESLIRELYKYVRKHDP [PRP28],3.4 ± 0.14,3.48 ± 0.16,2.83 ± 0.17,3.09 ± 0.12
DESSGTSRIDEEKPGLI [SMC4],2.89 ± 0.058,3.12 ± 0.047,2.94 ± 0.05,3.08 ± 0.065
DEVDAIGGRRFSEGTSA [RPT4],2.72 ± 0.086,2.67 ± 0.083,2.48 ± 0.1,2.35 ± 0.09
DFDNIEFKKIPRVKGFK [SEC65],2.84 ± 0.14,3.11 ± 0.13,2.82 ± 0.078,3.13 ± 0.088
DFNEIVQYLSGAHGNSD [POP3],1.24 ± 0.096,1.22 ± 0.14,1.18 ± 0.21,1.28 ± 0.11
DGGYNAQLAKAKTELNE [SMC2],2.64 ± 0.092,1.94 ± 0.058,1.44 ± 0.072,1.5 ± 0.038
DGKKHSVFYTILRDYGP [RPO31],2.86 ± 0.072,2.95 ± 0.067,3.19 ± 0.054,2.87 ± 0.06
DGMYSESKLSLETLFNR [FAS2],3.39 ± 0.075,3.25 ± 0.09,3.32 ± 0.046,3.33 ± 0.048
DGRSFDQFRDVEITFGK [RRP45],3.27 ± 0.092,3.3 ± 0.058,3.54 ± 0.077,3.21 ± 0.057
DHINGSGKRKPTKAAQR [GAL11],2.3 ± 0.14,2.81 ± 0.094,3.1 ± 0.16,3.17 ± 0.1
DIDAVNGAVGKREGKTR [ISW2],2.94 ± 0.13,3.47 ± 0.11,2.94 ± 0.1,3.4 ± 0.071
DIETQLCSMLQEASQVT [MED11],2.73 ± 0.1,2.73 ± 0.11,2.32 ± 0.11,2.44 ± 0.074
